PMC8646660 (EMBO Molecular Medicine, 2021)

Columns and labels:
[1] = target: T1, SARS-CoV-2 S receptor-binding domain (RBD), biotinylated (SARS-CoV-2, UniProt P0DTC2, biotin on the Avi tag (enzymatic, BirA)); assay: cell-based or functional assay
[2] = target: T1, SARS-CoV-2 S receptor-binding domain …; assay: BLI; settings: both partners purified

Binder | neutralisation of SARS-CoV-2 pseudovirus particles (pp), IC50 [1] | Kd [2] | microneutralisation of authentic SARS-CoV-2 hCoV-19/China/CAS-B001/2020, IC50 [1]
scFD20 (single-chain variable fragment of FD20) (scFv, V domains shown, also called scFv of FD20; scFv FD20; source: E. coli MC1061, periplasmic release, purified (Ni-NTA)) VH: QVQLQQSGAEVKKPGSSVKVSCKASGGTFSSYAFSWVRQAPGQGLEWMGRIIPILGIANYAQKFQGRVTITADISTSTAYMALSSLRSEDTAVYYCAKVEVNIGMDDYYYYYGMDVWGQGTTVTVSS VL: not shown | 117 nM | 5.6 nM | 
FD20 (IgG format) (antibody, V domains shown) VH: QVQLQQSGAEVKKPGSSVKVSCKASGGTFSSYAFSWVRQAPGQGLEWMGRIIPILGIANYAQKFQGRVTITADISTSTAYMALSSLRSEDTAVYYCAKVEVNIGMDDYYYYYGMDVWGQGTTVTVSS VL: not shown |  |  | 5.2 nM
